The nature of series [1]: Accelerated stability study at 37° C., BIOD 901 compared to Lilly glucagon (Example 3). Type of series: physicochemical. To be noted: in solution at pH 4.
The conditions of series [2]: cited from earlier work.
The conditions of series [3]: cited from earlier work. This is another data set of the same source.

Like-named read-outs stand apart in the source and are kept apart here. Bounds are passed on as bounds.

glucagon had a time to gel in series [1] not above 2 days. Also, the gel formation entry in series [2] (acidic aqueous conditions (pH 3-4)) is “forms a gel”. Moreover, the precipitation entry in series [2] (neutral aqueous solution) was “precipitates within an hour of preparation”. For the same substance, the “solubility in aqueous solutions” value in series [2] (pH less than 3 or greater than 9) was “soluble”; in series [2] (pH range of 4 to 8), “low solubility”. The “onset of action post injection” value in series [3] was 5 to 20 min.

The values are drawn from US9610329B2 (Albireo Pharma, Inc., priority 2009, dated 2017).
